Consider five substances from publication PMC32300.

The target in experiment [1] is RPTPα-200-XFP (RPTPα-200-CFP and RPTPα-200-YFP). In words: cross-linking.
For experiment [2], the target named is full length RPTPα-XFP (RPTPα-CFP and RPTPα-YFP). As to the kind of experiment: cross-linking.
The target is the same in experiment [3]. In words: FRET or BRET.
For experiment [4], the target named is RPTPα-516-XFP (RPTPα-516-CFP and RPTPα-516-YFP). In words: FRET or BRET.
In experiment [5] the target is RPTPα-P137C. In words: cross-linking.
Experiment [6] has as its target RPTPα-P137C. As to the kind of experiment: non-reducing SDS-PAGE.
In experiment [7] the target is RPTPα-P137C-XFP (RPTPα-P137C-CFP and RPTPα-P137C-YFP). In words: FRET or BRET. A general note: BRET reads energy transfer from a luciferase to a nearby fluorophore.

Sequence of RPTPα-200-XFP (RPTPα-200-CFP and RPTPα-200-YFP) (P18052 20-829): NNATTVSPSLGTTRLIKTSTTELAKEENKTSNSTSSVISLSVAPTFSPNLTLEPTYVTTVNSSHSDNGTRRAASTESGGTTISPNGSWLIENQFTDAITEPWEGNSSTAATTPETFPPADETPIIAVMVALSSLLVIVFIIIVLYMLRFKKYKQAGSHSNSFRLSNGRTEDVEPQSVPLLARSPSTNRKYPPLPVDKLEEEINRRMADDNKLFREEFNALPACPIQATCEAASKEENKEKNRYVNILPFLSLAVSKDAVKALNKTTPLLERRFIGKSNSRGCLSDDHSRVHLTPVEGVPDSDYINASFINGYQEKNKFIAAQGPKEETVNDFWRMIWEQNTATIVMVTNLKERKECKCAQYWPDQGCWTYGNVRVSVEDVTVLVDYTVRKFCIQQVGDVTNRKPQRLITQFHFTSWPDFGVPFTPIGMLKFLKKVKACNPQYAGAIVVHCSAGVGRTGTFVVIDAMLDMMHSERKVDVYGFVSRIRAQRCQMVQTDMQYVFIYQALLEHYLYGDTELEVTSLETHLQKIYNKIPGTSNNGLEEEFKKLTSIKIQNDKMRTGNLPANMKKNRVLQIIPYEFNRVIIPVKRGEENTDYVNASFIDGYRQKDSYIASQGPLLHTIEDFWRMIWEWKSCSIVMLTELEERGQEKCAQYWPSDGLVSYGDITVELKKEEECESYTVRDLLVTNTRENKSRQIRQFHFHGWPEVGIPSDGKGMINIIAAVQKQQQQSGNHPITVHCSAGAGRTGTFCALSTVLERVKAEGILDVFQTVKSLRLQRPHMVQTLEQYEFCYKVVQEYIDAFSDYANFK
Sequence of RPTPα-516-XFP (RPTPα-516-CFP and RPTPα-516-YFP) (P18052 20-829): as above

Regarding “RPTPα-200-XFP (RPTPα-200-CFP and RPTPα-200-YFP) (domain or fragment)”, the stoichiometry N (commonly a count of units in the complex or per binding partner) in experiment [1] turned out to be 2. For “full length RPTPα-XFP (RPTPα-CFP and RPTPα-YFP) (receptor)”, the stoichiometry N in experiment [2] was found to be 2. The CFP fluorescence lifetime (τφ) in experiment [3] turned out to be 2.2 ns.

On to “RPTPα-516-XFP (RPTPα-516-CFP and RPTPα-516-YFP) (domain or fragment)”, for which the F(440)/F(490) ratio in experiment [4] was 0.46.

Take RPTPα-P137C (receptor): the percent cross-linked by BS3 with RPTPα-P137C [5] is less than 10%. This substance showed a percent in the dimeric form in the experiment with RPTPα-P137C [6] of more than 80%. Regarding “RPTPα-P137C-XFP (RPTPα-P137C-CFP and RPTPα-P137C-YFP) (receptor)”, in experiment [7], the F(440)/F(490) ratio came out at 0.5.
